Article PMC11050682, “https://orcid.org/0009-0003-0282-9605 Pérez-Mora Salvador Conceptualization Methodology Software Validation Formal analysis Investigation Data curation Writing – original draft Writing – review & edit”

Target: T1, drEhHSTF5 (dimeric rEhHSTF5, fraction 10) (Entamoeba histolytica, UniProt C4M5X4 1-329)
T1 sequence: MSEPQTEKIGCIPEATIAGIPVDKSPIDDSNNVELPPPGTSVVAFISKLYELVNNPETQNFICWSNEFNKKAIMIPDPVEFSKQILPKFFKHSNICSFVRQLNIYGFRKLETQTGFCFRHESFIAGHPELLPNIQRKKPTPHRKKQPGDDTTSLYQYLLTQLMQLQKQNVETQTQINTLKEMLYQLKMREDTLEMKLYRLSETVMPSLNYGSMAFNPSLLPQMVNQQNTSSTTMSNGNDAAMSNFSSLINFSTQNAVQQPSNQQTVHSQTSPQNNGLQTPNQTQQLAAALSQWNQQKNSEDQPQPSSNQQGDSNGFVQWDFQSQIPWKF
Assay: competition; 150x molar excess; complex reduced
Settings: protein: recombinant; tags: N-terminal His6 (pET-28a); chain copies: 2; blunt

B1: HSE_EhPgp5 unlabelled (specific competitor) (dsDNA)
DNA 1: ATAGAAATTTTTCATA
DNA 2: TATGAAAAATTTCTAT
Question: Does B1 bind?
Answer: Result: binds
